In US20260234242A1 (HAINAN SIMCERE ZAIMING PHARMACEUTICAL, published 2026):

T1: human CDH6 on tumor cells (OVCAR3 cells, PA-1 cells) (human, UniProt P55285 54-790)
T1 sequence: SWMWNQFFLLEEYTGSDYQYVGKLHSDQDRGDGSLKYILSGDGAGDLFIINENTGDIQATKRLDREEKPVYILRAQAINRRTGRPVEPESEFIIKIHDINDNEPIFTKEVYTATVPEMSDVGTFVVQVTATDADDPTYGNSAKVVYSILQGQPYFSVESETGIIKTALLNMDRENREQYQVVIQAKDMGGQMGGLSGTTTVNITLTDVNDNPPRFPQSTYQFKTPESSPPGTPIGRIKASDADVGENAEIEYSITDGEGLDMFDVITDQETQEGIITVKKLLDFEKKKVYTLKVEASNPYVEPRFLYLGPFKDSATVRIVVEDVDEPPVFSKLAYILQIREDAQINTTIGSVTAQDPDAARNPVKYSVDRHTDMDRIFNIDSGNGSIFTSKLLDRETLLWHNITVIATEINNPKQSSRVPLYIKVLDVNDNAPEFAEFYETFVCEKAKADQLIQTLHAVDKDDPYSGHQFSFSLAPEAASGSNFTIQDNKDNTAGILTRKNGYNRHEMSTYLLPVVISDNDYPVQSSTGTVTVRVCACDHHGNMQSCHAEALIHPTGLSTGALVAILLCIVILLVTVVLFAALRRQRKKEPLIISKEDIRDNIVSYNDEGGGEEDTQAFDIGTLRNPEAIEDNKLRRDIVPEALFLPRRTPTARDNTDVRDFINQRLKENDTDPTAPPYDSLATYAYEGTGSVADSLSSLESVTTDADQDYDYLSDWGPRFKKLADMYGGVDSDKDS

T2: his-tagged human CDH6 extracellular region protein (hCDH6 ECD-his) (human, UniProt P55285 19-615)
T2 construct: also called Human CDH6-his; hCDH6-his; not shown: his tag
T2 sequence: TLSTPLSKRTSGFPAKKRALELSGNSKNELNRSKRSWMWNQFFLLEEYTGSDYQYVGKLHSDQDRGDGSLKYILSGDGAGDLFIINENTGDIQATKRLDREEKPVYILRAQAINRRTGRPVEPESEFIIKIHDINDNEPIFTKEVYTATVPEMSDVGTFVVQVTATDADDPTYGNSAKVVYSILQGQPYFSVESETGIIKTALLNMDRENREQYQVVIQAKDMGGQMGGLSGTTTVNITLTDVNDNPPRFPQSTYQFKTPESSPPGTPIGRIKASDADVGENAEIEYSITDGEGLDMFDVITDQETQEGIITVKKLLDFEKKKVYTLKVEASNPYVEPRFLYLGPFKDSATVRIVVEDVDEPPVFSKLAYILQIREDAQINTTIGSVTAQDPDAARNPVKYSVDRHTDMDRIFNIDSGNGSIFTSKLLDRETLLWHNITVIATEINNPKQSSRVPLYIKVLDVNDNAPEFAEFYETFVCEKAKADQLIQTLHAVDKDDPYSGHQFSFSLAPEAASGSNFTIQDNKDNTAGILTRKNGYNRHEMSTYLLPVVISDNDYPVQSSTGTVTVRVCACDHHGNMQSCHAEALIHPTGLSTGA


Tests used:
[1] = molecular target: T1, human CDH6 on tumor cells (OVCAR3 …); assay: FACS, OVCAR3 cells
Method: OVCAR3 cells with high expression of CDH6 and PA-1 cells with moderate expression of CDH6 were used to detect the binding activity of the antibodies to the cells. […] The cells were washed once with PBS, counted, resuspended to 2×10⁶ cells/mL in an FACS buffer (PBS+2% FBS), and then added to a 96-well plate at 50 μL/well. The chimeric antibodies were diluted with FACS buffer (PBS+2% FBS) and added to the 96-well plate at 50 μL/well, and the plate was incubated at 4° C. for 1 h. […] The dilution was added to the 96-well plate at 50 μL/well, and the plate was incubated at 4° C. for 1 h. After the plates were centrifuged and washed 2 times with PBS, the cells were resuspended in an FACS buffer. The mean fluorescence intensity (MFI) was measured using FACS Canton II (BD). Analysis was performed by the GraphPad Prism software, data were fitted, and EC50 values were calculated. The chimeric antibodies tested had strong binding to both OVCAR3 cells and PA-1 cells.
According to the above sequences, heavy chain (HC) and light chain (LC) plasmids were constructed (the nucleic acid sequences encoding the VH and VL of the antibodies were recombined into an expression vector carrying a signal peptide (SEQ ID NO: 132, […]) and a heavy chain constant region/light chain constant region sequence to obtain recombinant plasmids expressing VH—CH1-Fc/VL-CL). According to the expression and purification methods in Example 2, the hCDH6-6 humanized antibodies were obtained, and the binding activity of the humanized antibodies was detected by ELISA and FACS (see 2.2 and 2.3 for the method).

[2] = molecular target: T2, his-tagged human CDH6 extracellular …; assay: ELISA, coated antigen
Method: Human CDH6 protein (hCDH6 ECD-his, conventionally synthesized), monkey CDH6 protein (cynoCDH6 ECD-his, conventionally synthesized; the cynoCDH6 ECD sequence was derived from Uniprot #A0A2K5TW62 (19-615)), and murine CDH6 protein (mCDH6 ECD-his, conventionally synthesized; the mCDH6 ECD sequence was derived from Uniprot #P97326 (19-615)) were diluted with PBS to a final concentration of 1 μg/mL, and added to a 96-well ELISA plate at 100 μL/well. The plate was incubated at 4° C. overnight. The next day, the plate was washed 3 times with a plate washing solution (PBS+0.01% (v/v) Tween 20), and a blocking buffer (PBS+0.01% (v/v) Tween 20+2% (w/w) BSA) was added for blocking at room temperature for 2 h. The blocking buffer was discarded, and the plate was washed 3 times. The chimeric antibodies were diluted with 1% BSA+PBS (purchased from Cytiva, Cat. No. SH30264.01) and added to the 96-well plate at 50 μL/well. After incubation at 37° C. for 2 h, the plate was washed 3 times with a plate washing solution. […] The plate was incubated at 37° C. for 1 h and then washed 5 times with a plate washing solution. A TMB substrate (purchased from Seracare, Cat. No. 5120-0077) was added at 50 μL/well and incubated at room temperature for 10 min, then a stop solution (1.0 N HCl) was added at 50 μL/well. OD450 nm values were read using a microplate reader (Biotek). Analysis was performed by the GraphPad Prism software, data were fitted, and EC50 values were calculated. The chimeric antibodies tested all had strong binding to the human CDH6 protein, the monkey CDH6 protein, and the murine CDH6 protein.
According to the above sequences, heavy chain (HC) and light chain (LC) plasmids were constructed (the nucleic acid sequences encoding the VH and VL of the antibodies were recombined into an expression vector carrying a signal peptide (SEQ ID NO: 132, […]) and a heavy chain constant region/light chain constant region sequence to obtain recombinant plasmids expressing VH—CH1-Fc/VL-CL).

| Binder | EC50 [1] [nM] | Max MFI [1] [MFI] | EC50 [2] [nM] | Max OD450 [2] [OD450] |
| --- | --- | --- | --- | --- |
| hCDH6-6-H1L3 (antibody, V domains shown, Humanized) VH: EVQLVQSGAEVKKPGASVKVSCKASGYTFTDYYMAWVRQAPGQGLEWMGYIFPNSGGTDYSQKFKGRVTMTVDKSTSTVYMELSSLRSEDTAVYYCARELGADYGDYYAMDHWGQGTTVTVSS VL: DIQMTQSPSSLSASVGDRVTITCRASENIDSYLAWYQQKPGKSPQLLVYSATLLADGVPSRFSGSGSGTDYTLTISSLQPEDFATYYCQHYYRTPPTFGQGTKLEIK | 0.63 | 13800 | 0.031 | 1.99 |
| hCDH6-6-H1L4 (antibody, V domains shown, Humanized; also called hCDH6-6-HIL4) VH: EVQLVQSGAEVKKPGASVKVSCKASGYTFTDYYMAWVRQAPGQGLEWMGYIFPNSGGTDYSQKFKGRVTMTVDKSTSTVYMELSSLRSEDTAVYYCARELGADYGDYYAMDHWGQGTTVTVSS VL: DIQMTQSPSSLSASVGDRVTITCRASENIDSYLAWYQQKPGKSPKLLVYSATLLADGVPSRFSGSGSGTDYTLTISSLQPEDFARYYCQHYYRTPPTFGQGTKLEIK | 0.64 | 14400 | 0.021 | 2.16 |
| hCDH6-6-H2L3 (antibody, V domains shown, Humanized) VH: EVQLVQSGAEVKKPGASVKVSCKASGYTFTDYYMAWVRQAPGQGLEWMGYIFPNSGGTDYSQKFKGRVTLTVDKSTSTVYMELSSLRSEDTAVYYCARELGADYGDYYAMDHWGQGTTVTVSS VL: DIQMTQSPSSLSASVGDRVTITCRASENIDSYLAWYQQKPGKSPQLLVYSATLLADGVPSRFSGSGSGTDYTLTISSLQPEDFATYYCQHYYRTPPTFGQGTKLEIK | 0.57 | 14100 | 0.025 | 2.09 |
| hCDH6-6-H2L4 (antibody, V domains shown, Humanized) VH: EVQLVQSGAEVKKPGASVKVSCKASGYTFTDYYMAWVRQAPGQGLEWMGYIFPNSGGTDYSQKFKGRVTLTVDKSTSTVYMELSSLRSEDTAVYYCARELGADYGDYYAMDHWGQGTTVTVSS VL: DIQMTQSPSSLSASVGDRVTITCRASENIDSYLAWYQQKPGKSPKLLVYSATLLADGVPSRFSGSGSGTDYTLTISSLQPEDFARYYCQHYYRTPPTFGQGTKLEIK | 0.62 | 14300 | 0.029 | 2.14 |
| hCDH6-6-H1L5 (antibody, V domains shown, Humanized) VH: EVQLVQSGAEVKKPGASVKVSCKASGYTFTDYYMAWVRQAPGQGLEWMGYIFPNSGGTDYSQKFKGRVTMTVDKSTSTVYMELSSLRSEDTAVYYCARELGADYGDYYAMDHWGQGTTVTVSS VL: DIVMTQSPLSLPVTPGEPASISCRASENIDSYLAWYLQKPGKSPQLLVYSATLLADGVPDRFSGSGSGTDFTLKISRVEAEDVGVYYCQHYYRTPPTFGQGTKLEIK | 0.61 | 14200 | 0.031 | 2.06 |
| hCDH6-6-H2L5 (antibody, V domains shown, Humanized) VH: EVQLVQSGAEVKKPGASVKVSCKASGYTFTDYYMAWVRQAPGQGLEWMGYIFPNSGGTDYSQKFKGRVTLTVDKSTSTVYMELSSLRSEDTAVYYCARELGADYGDYYAMDHWGQGTTVTVSS VL: DIVMTQSPLSLPVTPGEPASISCRASENIDSYLAWYLQKPGKSPQLLVYSATLLADGVPDRFSGSGSGTDFTLKISRVEAEDVGVYYCQHYYRTPPTFGQGTKLEIK | 0.64 | 14600 | 0.026 | 2.1 |

Second part, the binder after the results:

| EC50 [1] [nM] | Max MFI [1] [MFI] | EC50 [2] [nM] | Max OD450 [2] [OD450] | Binder |
| --- | --- | --- | --- | --- |
| 0.87 | 13700 | 0.05 | 2.02 | hCDH6-6-H3L1 (antibody, V domains shown, Humanized) VH: EVQLVQSGAEVKKPGASVKVSCKASGYTFTDYYMAWVRQAPRQGLEWMGYIFPNSGGTDYSQKFKGRVTMTVDKSTSTVYMELSSLRSEDTAVYYCARELGADYGDYYAMDHWGQGTTVTVSS VL: DIQMTQSPSSLSASVGDRVTITCRASENIDSYLAWYQQKPGKSPKLLLYSATLLADGVPSRFSGSGSGTDYTLTISSLQPEDFATYYCQHYYRTPPTFGQGTKLEIK |
| 0.85 | 14600 | 0.03 | 2.09 | hCDH6-6-H3L2 (antibody, V domains shown, Humanized) VH: EVQLVQSGAEVKKPGASVKVSCKASGYTFTDYYMAWVRQAPRQGLEWMGYIFPNSGGTDYSQKFKGRVTMTVDKSTSTVYMELSSLRSEDTAVYYCARELGADYGDYYAMDHWGQGTTVTVSS VL: DIQMTQSPSSLSASVGDRVTITCRASENIDSYLAWYQQKPGKSPKLLVYSATLLADGVPSRFSGSGSGTDYTLTISSLQPEDFATYYCQHYYRTPPTFGQGTKLEIK |
| 0.74 | 14300 | 0.031 | 2 | hCDH6-6-H3L3 (antibody, V domains shown, Humanized) VH: EVQLVQSGAEVKKPGASVKVSCKASGYTFTDYYMAWVRQAPRQGLEWMGYIFPNSGGTDYSQKFKGRVTMTVDKSTSTVYMELSSLRSEDTAVYYCARELGADYGDYYAMDHWGQGTTVTVSS VL: DIQMTQSPSSLSASVGDRVTITCRASENIDSYLAWYQQKPGKSPQLLVYSATLLADGVPSRFSGSGSGTDYTLTISSLQPEDFATYYCQHYYRTPPTFGQGTKLEIK |
| 0.7 | 14500 | 0.041 | 2.05 | hCDH6-6-H3L4 (antibody, V domains shown, Humanized) VH: EVQLVQSGAEVKKPGASVKVSCKASGYTFTDYYMAWVRQAPRQGLEWMGYIFPNSGGTDYSQKFKGRVTMTVDKSTSTVYMELSSLRSEDTAVYYCARELGADYGDYYAMDHWGQGTTVTVSS VL: DIQMTQSPSSLSASVGDRVTITCRASENIDSYLAWYQQKPGKSPKLLVYSATLLADGVPSRFSGSGSGTDYTLTISSLQPEDFARYYCQHYYRTPPTFGQGTKLEIK |
